Source: patent US20240199750A1

Experiments:
[1] = target: IL-2Rβ (CD122) on NK cells (human) (UniProt P14784); experiment: cell-based or functional assay
[2] = target: high affinity IL-2Rαβγ complex on Treg cells (human) (UniProt P01589); experiment: cell-based or functional assay
Chain of UniProt P01589 (P01589 22-272, chain 1 of 3): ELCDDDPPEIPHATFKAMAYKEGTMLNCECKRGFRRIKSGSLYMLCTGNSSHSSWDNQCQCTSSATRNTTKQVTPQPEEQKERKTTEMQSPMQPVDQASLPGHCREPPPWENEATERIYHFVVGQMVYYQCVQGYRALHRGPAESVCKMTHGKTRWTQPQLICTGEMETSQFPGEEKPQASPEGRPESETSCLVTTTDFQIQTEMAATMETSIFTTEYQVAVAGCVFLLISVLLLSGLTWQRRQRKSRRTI
Chain of UniProt P01589 (P14784 27-551, chain 2 of 3, further chain): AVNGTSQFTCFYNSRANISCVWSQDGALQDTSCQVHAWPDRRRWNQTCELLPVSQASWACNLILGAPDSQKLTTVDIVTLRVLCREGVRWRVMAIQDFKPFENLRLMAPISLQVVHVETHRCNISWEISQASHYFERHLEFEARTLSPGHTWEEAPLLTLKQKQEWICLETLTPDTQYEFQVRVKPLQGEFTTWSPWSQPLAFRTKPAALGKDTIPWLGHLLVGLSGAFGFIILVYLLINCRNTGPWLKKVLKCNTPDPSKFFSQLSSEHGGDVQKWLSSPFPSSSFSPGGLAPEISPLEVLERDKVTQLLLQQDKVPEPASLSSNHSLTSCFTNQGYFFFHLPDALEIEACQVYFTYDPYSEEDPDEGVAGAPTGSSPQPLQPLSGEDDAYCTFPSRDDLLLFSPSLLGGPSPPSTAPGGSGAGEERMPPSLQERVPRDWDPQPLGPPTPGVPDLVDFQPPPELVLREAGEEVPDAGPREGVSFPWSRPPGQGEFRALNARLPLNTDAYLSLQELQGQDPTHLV
Chain of UniProt P01589 (P31785 23-369, chain 3 of 3, further chain): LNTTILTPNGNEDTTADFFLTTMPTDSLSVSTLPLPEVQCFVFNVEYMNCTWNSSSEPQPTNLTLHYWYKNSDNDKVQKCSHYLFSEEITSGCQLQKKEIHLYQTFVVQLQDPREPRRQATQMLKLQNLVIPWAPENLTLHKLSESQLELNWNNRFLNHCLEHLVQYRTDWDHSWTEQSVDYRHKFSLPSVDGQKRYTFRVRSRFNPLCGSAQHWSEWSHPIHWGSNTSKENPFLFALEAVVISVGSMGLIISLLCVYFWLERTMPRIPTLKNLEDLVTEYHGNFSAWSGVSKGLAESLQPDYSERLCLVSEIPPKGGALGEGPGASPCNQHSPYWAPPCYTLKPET

Chain of UniProt P14784 (P14784 27-551): as the sequence (P14784 27-551, chain 2 of 3, further chain) above

% pSTAT5, EC50 NK cells [1]: 10 pM
% pSTAT5, EC50 Tregs [2]: 0.7 nM
B1: CD20-T5-NKp46-IL2v3 (protein, part only; not given: anti-CD20 antibody chains, anti-NKp46 domain, part only)
chain, part: SSSTKKTQLQLEHLLLDLQMILNGINNYKNPKLTAMLAKKFYMPKKATELKHLQCLEEELKPLEEVLNLAQSKNFHLRPRDLISNINVIVLELKGSETTFMCEYADETATIVEFLNRWITFCQSIISTLT
